Measured values published in PMC2195916.

Legend:
[1] = target: Por1B of N. gonorrhoeae strain MS11 (Neisseria gonorrhoeae strain MS11); experiment: flow cytometry on cells
[2] = target: C4b-binding protein (C4bp) (human) (UniProt P04003); experiment: flow cytometry on cells

Row | percent decrease of C4bp binding to MS11 (C4b in 60-fold molar excess) [2] [%] | Substance | percent decrease of binding in 575 mM NaCl [1] [%] | percent decrease of binding with 125 units of heparin [1] [%]
1 | – | C4b-binding protein (C4bp) (from UniProt P04003 49-597; P20851 18-252) (complex) | 85 | > 90
2 | 50 | C4b (natural protein) | – | –
